Test results reported in patent US12337037B2, “Taxol conjugate compounds, pharmaceutical compositions comprising the same, and methods for their use” (N1 Life, Inc, priority 2021, dated 2025).
Where two headings read alike, the source gives them in different places.

Assays:
[1] = Stability in buffer; format: physicochemical; conditions: for half-life at 5 μM: buffer solution, read-out: Mean T 1/2 (converted)
Description: Working solutions of Compound 5 (1 mM of) and Compound 3 (1 mM) were prepared. Buffer solution (199 μL) was prepared and divided into fourteen incubation tubes. The tubes were then pre-warmed at 37° C. for 15 minutes. The 1 mM Compound 5 working solution was added to seven incubation tubes (1 μL each) for a final concentration of 5 μM and the 1 mM Compound 3 working solution was added to seven incubation tubes (1 μL each) for a final concentration of 5 μM. For Compound 5, the final concentration of organic solvents was 0.5%. Each samples was incubated at 37° C. for 0, 4, 8, 24, 48, 72, or 120 hours. The assay was performed in duplicate. After incubation for 0, 4, 8, 24, 48, 72 or 120 hours, reactions were quenched by the addition of 1000 μL methanol (pre-cool treatment under 4° C.) with 2% FA containing internal standards. All samples were vortexed for 10 minutes. 150 μL of the supernatant from each sample was transferred to a new plate. 150 μL of pure water was added to each sample for analysis by LC-MS/MS (cooler temperature: 15° C.). All calculations were carried out using Microsoft Excel. Peak area ratios were determined from extracted ion chromatograms. Percent compounds remaining at each time point were calculated by the following equation: Remaining Percentaget min(%)=(Peak Area Ratiot min/Peak Area Ratio0 min)×100
Peak Area Ratiot min is peak area ratio of test compounds at t min; and
Peak Area Ratio0 min is peak area ratio of test compounds at zero time point.
The slope value, k, was determined by linear regression of the natural logarithm of the remaining percentage of the parent drug vs. incubation time curve.
The in vitro half-life (in vitro t1/2) was determined from the slope value: in vitro t1/2=(0.693/k) Appearance of Taxol concentration (nM)=Peak Area Ratio t min/Peak Area Ratio(Taxol: 5 μM)×5000% Appearance of Taxol=Peak Area Ratio min/Peak Area Ratio(Taxol: 5 μM)×100

[2] = Safety: animal body weight change after dosing, tumor bearing mice; conditions: for Weight on day 21 (MEAN ± SD) / Weight on day 0 (MEAN ± SD): IP Q5D (day 0, 5, 10); for Weight on day 21 (MEAN ± SD) / Weight on day 0 (MEAN ± SD) / Weight gain (%): Taxol 10 mg/kg; for Weight on day 0 (MEAN ± SD): baseline; for Weight gain (%): day 0 to day 21, IP Q5D
Description: Animals: Female athymic nude mice were used in this study. The experimental mice were purchased from Shibefu (Beijing) Biotechnology Co., Ltd. (QC number: SCXK Beijing 2019-0010) and maintained in a High Efficiency Particulate Air Filter (HEPA) filtered environment with cages, food and bedding sterilized by irradiation or autoclaving.
Establishment of peritoneal disseminated metastasis model of human ovarian cancer: Human ovarian cancer (SKOV-3-GFP) cells in logarithmic growth period were digested with 0.25% trypsin, rinsed with phosphate buffer (PBS) twice, centrifuged, and suspended with serum-free RPMI1640 medium. Cell suspension (6×10^6/120 μL/mouse) was injected into the peritoneal cavity of each experimental mouse for the establishment of peritoneal disseminated metastasis model of human ovarian cancer.
Groups, testing articles and treatment protocols: Day 4 after cell inoculation, all mice were subjected to systemic imaging using FluorVivo Model-100 (INDEC biosystems, CA, USA). Mice with a small deviation from average tumor load were enrolled in the study. All animals were randomly allocated to the different study groups, 6 mice in each group. Dosing schedule was Q5D (day 0, 5, 10), dosing volume was 10 μl/g, and administration route was intraperitoneal injection. Each dose of Compound 3 or Compound 5 was 9.6 mg/kg (equimolar to 2.5 mg/kg Taxol) and each dose of Taxol was 10 mg/kg. Taxol working solutions were prepared from 6 mg/mL stock solution, while Compounds were dissolved in PBS (pH 7.4) and filtered through 0.22 μm filter.
Monitoring of the experimental mice: During the period of the study, all experimental mice were checked daily for mortality or signs of morbidity. Images of tumor progression were acquired three times a week during the period of the study with the FluorVivo imaging system, Model 100/Mag (INDEC BioSystems, CA, USA). The body weights of the mice were measured three times a week during the period of the study.
Study endpoint: On Day 21 after administration, animals were euthanized by inhalation of excessive anesthetics. All tumors were exposed for imaging (under the same exposure conditions), after which the tumors were removed and weighed with an electronic balance (Sartorius BS 124 S, Germany). The tumor samples were then stored in formalin solution.
Statistical methods used in efficacy evaluation: Comparison of body weights and tumor burdens in different groups were analyzed using EXCEL t-test with an α=0.05 (two-sided).

[3] = system: SKOV-3-GFP cells; assay: Elimination of ascites; format: in vivo, mice; conditions: SKOV-3-GFP cells injected into the peritoneal cavity; Compound 3 9.6 mg/kg, Taxol 10 mg/kg
Description: Following the procedure described in Example 5, mice injected with SKOV-3-GFP cells (a cell suspension of 6×10^6/120 μL/mouse or 8×10^6/120 μL/mouse injected into the peritoneal cavity) were also studied for the formation of ascites. Mice were administered vehicle (PBS), Taxol (10 mg/kg), or Compound 3 (9.6 mg/kg).
FIG. 16 and FIG. 18 are images of mice administered vehicle following an injection of SKOV-3-GFP cells (6×10^6/120 μL/mouse or 8×10^6/120 μL/mouse, respectively). […] FIG. 17A and FIG. 17B are images of two mice administered Compound 3 (9.6 mg/kg, equimolar to 2.5 mg/kg Taxol) following an injection of SKOV GFP cells (6×10^6/120 μL/mouse).

[4] = Table 7B (Compound 5 set), Compd 5 9.6 mg/kg
[5] = separate experiment, 38.4 mg/kg, 3 Q5D doses, tumor bearing mice
[6] = Table 7A (Compound 3 set), Compd 3 9.6 mg/kg

CC(=O)N[C@H](CSSCCCC(=O)O[C@@H](C(=O)O[C@H]1C[C@@]2(O)[C@@H](OC(=O)c3ccccc3)[C@@H]3[C@]4(OC(C)=O)CO[C@@H]4C[C@H](O)[C@@]3(C)C(=O)[C@H](OC(C)=O)C(=C1C)C2(C)C)[C@@H](NC(=O)c1ccccc1)c1ccccc1)C(=O)N[C@H](CCCNC(=N)N)C(=O)N[C@H](CCCNC(=N)N)C(=O)N[C@H](CCCNC(=N)N)C(=O)N[C@H](CCCNC(=N)N)C(=O)N[C@H](CCCNC(=N)N)C(=O)N[C@H](CCCNC(=N)N)C(=O)N[C@H](CCCNC(=N)N)C(=O)N[C@H](CCCNC(=N)N)C(N)=O [Compound 5, Ac-D-Cysteine (paclitaxel-4-mercaptobutanoate)-D-Arginine8-NH2]
half-life at 5 μM ([1]; buffer pH 5.5, 37° C.): 117 h | half-life at 5 μM ([1]; buffer pH 6.0, 37° C.): 93.5 h | half-life at 5 μM ([1]; buffer pH 6.5, 37° C.): 85.4 h | half-life at 5 μM ([1]; buffer pH 7.4, 37° C.): 49.4 h | Weight on day 21 (MEAN ± SD) [2, 4]: 16.9 ± 1.1 | Weight on day 0 (MEAN ± SD) [2, 4]: 16.9 ± 0.6 | Weight gain (%) [2, 4]: no change in body weight | Weight gain (%) ([2]; Table 7B (Compound 5 set), Compd 5 9.6 mg/kg, listed as Compd 5): 0% | animal deaths [2, 5]: One mouse in this group was found dead on Day 18 | body weight change on Day 21 [2, 5]: −2% | clinical signs after administration [2, 5]: recumbent and their voluntary activities were reduced

CC(=O)N[C@@H](CSSCCCC(=O)OC(C(=O)O[C@H]1C[C@@]2(O)[C@@H](OC(=O)c3ccccc3)[C@@H]3[C@]4(OC(C)=O)CO[C@@H]4C[C@H](O)[C@@]3(C)C(=O)[C@H](OC(C)=O)C(=C1C)C2(C)C)[C@@H](NC(=O)c1ccccc1)c1ccccc1)C(=O)N[C@H](CCCNC(=N)N)C(=O)N[C@H](CCCNC(=N)N)C(=O)N[C@H](CCCNC(=N)N)C(=O)N[C@H](CCCNC(=N)N)C(=O)N[C@H](CCCNC(=N)N)C(=O)N[C@H](CCCNC(=N)N)C(=O)N[C@H](CCCNC(=N)N)C(=O)N[C@H](CCCNC(=N)N)C(N)=O (stereo partly drawn) [Compound 3, Ac-L-Cysteine (paclitaxel-4-mercaptobutanoate)-D-Arginine8-NH2]
Percent Increase of T1/2, Compound 3 over Compound 5 ([1]; buffer pH 5.5): 6.05% | Percent Increase of T1/2, Compound 3 over Compound 5 ([1]; buffer pH 6.0): 6.36% | Percent Increase of T1/2, Compound 3 over Compound 5 ([1]; buffer pH 6.5): 8.01% | Percent Increase of T1/2, Compound 3 over Compound 5 ([1]; buffer pH 7.4): 10.67% | half-life at 5 μM ([1]; buffer pH 5.5, 37° C.): 125 h | half-life at 5 μM ([1]; buffer pH 6.0, 37° C.): 99.5 h | half-life at 5 μM ([1]; buffer pH 6.5, 37° C.): 92.3 h | half-life at 5 μM ([1]; buffer pH 7.4, 37° C.): 54.6 h | formation of ascites [3]: No bloody ascites were observed | body weight higher compared with the vehicle (PBS) group ([2]; 9.6 mg/kg IP Q5D, end of experiment): about 24% | Weight on day 21 (MEAN ± SD) [2, 6]: 18.5 ± 1.4 | Weight on day 0 (MEAN ± SD) [2, 6]: 16.3 ± 1.0 | Weight gain (%) [2, 6]: about 13% | Weight gain (%) ([2]; Table 7A (Compound 3 set), Compd 3 9.6 mg/kg, listed as Compd 3): 13% | animal deaths [2, 5]: no animal deaths were reported | body weight change on Day 21 [2, 5]: +22.1%

CC(=O)O[C@H]1C(=O)[C@@]2(C)[C@H]([C@H](OC(=O)c3ccccc3)[C@]3(O)C[C@H](OC(=O)[C@H](O)[C@@H](NC(=O)c4ccccc4)c4ccccc4)C(C)=C1C3(C)C)[C@]1(OC(C)=O)CO[C@@H]1C[C@@H]2O [Taxol, paclitaxel]
formation of ascites [3]: formation of malignant as cites
